Reference: paper PMC3342813 (2011)

Tests used:
BT2127 = biological target: T1, BT2127 (Bacteroides thetaiotaomicron, UniProt Q8A5V9); test: steady-state competitive inhibition of pyrophosphate hydrolysis; assay type: biochemical
T1 sequence (Q8A5V9 1-224): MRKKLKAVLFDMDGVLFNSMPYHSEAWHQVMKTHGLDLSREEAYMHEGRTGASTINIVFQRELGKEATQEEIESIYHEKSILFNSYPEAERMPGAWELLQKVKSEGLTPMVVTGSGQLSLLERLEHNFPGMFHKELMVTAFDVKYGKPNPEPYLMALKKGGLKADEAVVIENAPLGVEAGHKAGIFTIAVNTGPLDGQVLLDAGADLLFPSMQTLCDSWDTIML

purified protein [1] = substrate: O=[N+]([O-])c1ccc(OP(=O)(O)O)cc1; test: purified protein; conditions: Mg2+; pH 7.5; 25.0 °C
purified protein [2] = substrate: O=c1ccn([C@@H]2O[C@H](COP(=O)(O)O)[C@@H](O)[C@H]2O)c(=O)[nH]1; test: purified protein; conditions: Mg2+; pH 7.5; 25.0 °C
purified protein [3] = substrate: O=P(O)(O)OCC(O)CO; test: purified protein; conditions: Mg2+; pH 7.5; 25.0 °C

Molecule	Ki (BT2127)	Km (purified protein [1])	kcat (purified protein [1])	kcat/Km (purified protein [1])	Km (purified protein [2])	kcat (purified protein [2])	kcat/Km (purified protein [2])	Km (purified protein [3])	kcat (purified protein [3])	kcat/Km (purified protein [3])
O=P(O)(O)NP(=O)(O)O [imidodiphosphate]	13 ± 1 µM									
BT2127 (Bacteroides thetaiotaomicron VPI-5482) (protein) MRKKLKAVLFDMDGVLFNSMPYHSEAWHQVMKTHGLDLSREEAYMHEGRTGASTINIVFQRELGKEATQEEIESIYHEKSILFNSYPEAERMPGAWELLQKVKSEGLTPMVVTGSGQLSLLERLEHNFPGMFHKELMVTAFDVKYGKPNPEPYLMALKKGGLKADEAVVIENAPLGVEAGHKAGIFTIAVNTGPLDGQVLLDAGADLLFPSMQTLCDSWDTIML		0.05 ± 0.01 mM	0.0019 s⁻¹	40 M⁻¹ s⁻¹	2.6 ± 0.4 mM	0.15 s⁻¹	60 M⁻¹ s⁻¹	4.8 ± 0.3 mM	0.35 s⁻¹	70 M⁻¹ s⁻¹
